We go through one molecule from patent US10697970B2, “S100A9 levels for predicting lenalidomide and erythropoietin responsiveness” (H. LEE MOFFITT CANCER CENTER AND RESEARCH INSTITUTE, INC., priority 2015, dated 2020).

The test system of test [1] is MDS BM-MNC. Description: Pyroptosis flow cytometry panel in MDS BM-MNC incubated with autologous BM plasma. It counts as cell-based, human. The procedure: For human samples, treated and untreated BM-MNC were incubated overnight in IMDM, supplemented with 10% autologous BM plasma. Subsequently, cells were harvested, washed twice in 1×PBS, and stained with LIVE/DEAD Violet fluorescent reactive dye according to the manufacturer's protocol (Life Technologies). Cells were resuspended in 1×PBS with 2% BSA, and incubated at room temperature for 15 minutes to block non-specific binding. After washing, cells were stained with 30×FAM-FLICA® Caspase-1 and Caspase-3/7 solution at a ratio of 1:30 for 2 hours at 37° C. Cells were washed and stained for cell surface receptors using CD38:PE-CF594, CD33:BV711, CD34:APC (BD Biosciences), and CD71:PE-Cyanine7 (eBioscience). All antibodies were diluted 1:20, and cells were stained for 30 minutes at 4° C. Cells were washed, resuspended in 1× binding buffer, and stained with Annexin-V:Cy5.5 at a dilution of 1:20 for 15 minutes at room temperature (BD Biosciences). 1× binding buffer was added to a final volume of 400 μL. Sample acquisitions were carried out using a BD LSR II flow cytometer and FACSDiva software (BD Biosciences). Calibration of the flow cytometer was carried out prior to each experiment using Rainbow Mid-Range Fluorescent Particles (BD Biosciences). To establish fluorescence compensation settings, ArC Amine Reactive Compensation Beads were used for LIVE/DEAD Violet staining (Life Technologies), and BD CompBead Plus Anti-Mouse Ig κ/Negative Control (BSA) Compensation Plus Particles were used for surface receptor conjugates (BD Biosciences). Data were analyzed using FlowJo 9.7.5 software (FlowJo, LLC, Ashland, Oreg.).
Background: In flow cytometry, cells or beads pass a laser one at a time.

Test [2] relates to MDS BM-MNC. The test can be described thus: qPCR of pyroptosis-related genes in lower-risk MDS BM-MNC treated with CD33-IgG1. As to conditions: lower-risk MDS BM-MNC (n=5), 24 hours, versus autologous BM plasma alone. Format: cell-based, human. On the procedure:
RNA was isolated from BM-MNC using the RNeasy Mini Kit (Qiagen). cDNA was produced using the iScript cDNA Synthesis Kit (Bio-Rad). Sequences for primers can be found in Table 1. GAPDH mRNA was used for transcript normalization. cDNA was amplified using the iQ SYBR Green Supermix and the CFX96 Real-Time PCR Detection System (Bio-Rad). PCR conditions were as follows: 10 minutes at 95° C., followed by 40 cycles of amplification (15 seconds at 95° C. and 1 minute at 60° C.). Relative gene expression was calculated using the […] method.
Background: In qPCR the cycle at which signal appears reflects the starting amount.

B1: CD33-IgG1: S100A9 high-affinity chimeric (CD33-IgG1) decoy receptor (protein)
chain: DPNFWLQVQESVTVQEGLCVLVPCTFFHPIPYYDKNSPVHGYWFREGAIISRDSPVATNKLDQEVQEETQGRFRLLGDPSRNNCSLSIVDARRRDNGSYFFRMERGSTKYSYKSPQLSVHVTDLTHRPKILIPGTLEPGHSKNLTCSVSWACEQGTPPIFSWLSAAPTSLGPRTTHSSVLIITPRPQDHGTNLTCQVKFAGAGVTTERTIQLNVTYVPQNPTTGIFPGDGSGKQETRAGVVH
modifications: left off: a dimerising Fc or GST
Take B1: the “reduction of fraction of pyroptotic cells, maximum lineage-specific change, CD33+ cells” value in the test with MDS BM-MNC [1] (CD33+ immature myeloids, 0.5 μg CD33-IgG1 or 0.1 μM IRAK4 inhibitor, 24 hours) is given as 68%. Further, in the test on MDS BM-MNC [1] (CD34+CD38+ progenitor cells, 0.5 μg CD33-IgG1 or 0.1 μM IRAK4 inhibitor, 24 hours), the “reduction of fraction of pyroptotic cells, maximum lineage-specific change, progenitor cells” value is 23%. Further, the “reduction of fraction of pyroptotic cells, maximum lineage-specific change, stem cells” value in the test on MDS BM-MNC [1] (CD34+CD38− stem cells, 0.5 μg CD33-IgG1 or 0.1 μM IRAK4 inhibitor, 24 hours) was 44%. In addition, in the test on MDS BM-MNC [1] (CD71+ erythroids, 0.5 μg CD33-IgG1 or 0.1 μM IRAK4 inhibitor, 24 hours), the “reduction of fraction of pyroptotic cells, maximum lineage-specific change, CD71+ cells” value is reported as 64%. Moreover, in the test on MDS BM-MNC [1] (MDS BM-MNC (n=4), autologous BM plasma, 0.5 μg CD33-IgG1 or 0.1 μM IRAK4 inhibitor), the “fraction of pyroptotic cells across all lineages studied” value is given as “marked reduction”. The MDSC fraction entry in the test on MDS BM-MNC [1] (short-term treatment with the chimeric receptor) is given as “significantly reduced”. In the test with MDS BM-MNC [2], the CASP3 expression entry is recorded as “markedly reduced”; the “expression of CASP1, IL-1β, IL-18, and NLRP3” value is reported as “reduced”.
